Test: soluble on expression in E. coli; label from the status in PepcDB or PDB records

Sequence | soluble on expression in E. coli
MGSDKIHHHHHHMRKSRDANPFKAMPNILYPDELMDKAYNRSEKIAGELRTTTRGLSTPKSKIIEDNKIRTTASVISDNLLKIVEKTPSIDNLDPFYREILEIMVGSDEFKKSLAAVQWASEIVKKLGTQYSRKVKKAPSPQATSIVRKEFIGRVSSVLKQIYPNMAFLGVARNKLKNIPTVKNLPSVVIAGYPNVGKSTLLRTLTDAEPEVNSYPFTTKGLNIGYTEEGIQIIDTPGVLDRPIYERNDIELHAVVAINYLSDMILFVIDPTEFCGFTMEEQFNLLQEIRKTFNVPILVALTKMDVDEIEGLDKLEEDLGEYEVLKVSSFKKEGIADLRERLLDILDEQGLMGLLEE | not soluble
AQAVKEAASSDKPLIVAVTACTTGIAHIYMAEESLIKTGEKMSVNVRVETNGASGVGTPMTAEEINKAVGVIIAADKAVETACFNGKN | not soluble
GPGSMHAFRTRDITLRVPSKDKLLRFSFCSSRHLLAETIRRHDLLRSTGAHVDFLQLLGTQITFTSLLASALEGEERVEARFTAEEATILTEALALGECRCYLRPEYNAQLAECGLPTFPLRVNRILYRQEKPFSSVVHADLAELLQPPCDVASSFAAASSGANEASGAPFSLYLPDMERRVPLEAWKSFFSYNSSLHAYNYLRRSDGSVPAVWLQSRIDAVRLVDHGFLNVDSTAAAAAWQRGEACSDEDDEKAQDIRRALLHAIPFSFGVVVTPLAAGVAVDQRVNQLNRVVMEAAALLSAPSGGGATVTSALQPLLDRCAEKHTACQHILSLVSGDHDGAYQAAVAARQYNDDPAQVAAVVDPIRRALGVQDFVVPLAATEAARSGLDFFCRCSKQNVLESLVSAPPRALESLKGSDNTVHCSFCGRRYKLAGAEWQELEMARSASTPPQ | not soluble
GPGSMADILKSVKRIVVKVGSSILVDNQEIAAHRIEALCKFIADLQTKYEVILVTSGAVAAGYTQKEMDKAYVPNKQALASMGQPLLMHMYYTQLQKHGILCAQMLLAAYDLDSRKRTMNAHNTIEVLISHKVIPIINENDATALHELVFGDNDRLSALVAHHFKADLLVILSDIDGYYTENPRASTDAKIRSVVHELSPDDLVAEATPNNPFATGGIVTKLQAAQFLLERGGKMYLSSGFHLEKAREFLFGGSHEIGTLFYPRGSSS | soluble
MLVLYRASIRFKLRKNKNSFDSSNYFYGGNNICIINTKWGKHSGIGGYAEIIDTLVGNFTNISSWAKIGIRDHIHTNFLICDFVYKDNDHIMPPGISSFEDYWVKIGNDVWVGTNVTILRGVEVGDGAVIAAGSVVTKSIPPYAIVGGNPAKFIKWRFPFEVREKLLEIKWWDWDDDLIKEKKDYLQNLVGFDMDKYKIEYRKRKEDLFYLEHHHHHH | soluble
VFQSILDEIDVGLHVVDEHGNTIVYNNKMMQIEDMEKHDVLNKNLMDVFMFSKQQDSTLVQALQEGKTIKNVKQSYFNNKGQEITTINHTYPIVQDGKIRGAVEIAKDVT | not soluble
MGSDKIHHHHHHMLNMSNVPNDSVEEDGRLPTGKLPSAIGKNHRIAVVDTHFHLWKSQEIAPPSGIMADPSLFRDFDWSDYELAMQGVALEAAIHVQVHHGSEKAKSEYGRVERFAAEHAPIAGMIAWAPLESPGVEREIAELAQSPLVAGVRRLTQQEPDELFCARPQFVAGAKLLASYGLVCEVCVLEHQLKGVIALASACPELTIILDHLGKPHLAEPPTEHWLENMRILGMLENVVCKVAPTPLWASDPPLTAAHAAPFIEYVAEHFGWDRLIYGSNWPPLRILTDDASQWADIVFKTLHWAKADELGRLFSENARRIFRLNKGHR | not soluble
MGSDKIHHHHHHMPKKSFAQDCLYTAIMRLMREKDVDDITVKELVLKAGVARSTFYRYYTQPMDVLRDYLRPFNHGNAHLDDKDDKKVYLRRFYQYYTGHSELIYTLVQANKTEFLRETISCHILEVFSPMMTNKGVSPFLQKASVGLCVETLILWIVNDRKEKIEEMTDTVHNMVAVVERVS | not soluble
MGSDKIHHHHHHMERKTVLVIADLGGCPPHMFYKSAAEKYNLVSFIPRPFAITASHAALIEKYSVAVIKDKDYFKSLADFEHPDSIYWAHEDHNKPEEEVVEQIVKVAEMFGADAITTNNELFIAPMAKACERLGLRGAGVQAAENARDKNKMRDAFNKAGVKSIKNKRVTTLEDFRAALEEIGTPLILKPTYLASSIGVTLITDTETAEDEFNRVNDYLKSINVPKAVTFEAPFIAEEFLQGEYGDWYQTEGYSDYISIEGIMADGEYFPIAIHDKTPQIGFTETSHITPSILDEEAKKKIVEAAKKANEGLGLQNCATHTEIKLMKNREPGLIESAARFAGWNMIPNIKKVFGLDMAQLLLDVLCFGKDADLPDGLLDQEPYYVADCHLYPQHFKQNGQIPETAEDLVIEAIDIPDGLLKGDTEIVSFSAATPGTSVDLTLFEAFNSIAAFELKGSNSQDVAESIRQIQQHAKLTAKYVLPV | not soluble
METPVPKPRTKFEPSSPEPTLPPRPPVKPPRAVANSTAVQNFGNVLGELRLNLNETISSQDPPGIGFIEVSPGTSMSPPQRHAPPPPRPPPPAGWKQHPVIPERIQLNRPLPSLPIDVSLTPVYSEPSTSSPSSTNCYENHNSSVVENPLYLSLDTYRSISGITPSPSNAPTTSPDCDELREWLTEEEENESCSSSRPENLNASIPAPIPGDDSRPSIDSEENPYTPCPRRSDYDNSEFIGSTIDPFDDSFYTDNTTNNSHQNLYVSPQFVKEKTKSECDRYENVVEICSSPDPPPTHLYVNVPPIYPSADNIISSESDDVFRDEGKMKIDGSSITFVGFVSLTSSKKEKRLHCRLRNMQLSFHDDEDSTEPSNGTFDIKGIYLFRHMASDTPYILIHVGEKRNVISFIPEDPPNLWMFFLSEAWLSLNYGLTSVLRDADELTICGITWIKHGTTGEWKICSAGINGLTLHYMLVDAKDRIYNRNSERSDAGTSFMSTVGSIIGDELVEVDLRKVMTMRERIDKSEFCPNARHKRGPFSITLHGVTLYIDSRDDSTTSHWYEAIEALLKRPATRLENLRLTGDNIPVIVDKCIRFVSAYGMKCEGIYRRNGKVTEAKTILTKLTEDPVGYYPVHENDETVYAVADVLRQFFRKLDAPLFPSSSQADLFDLATESQSDELCARYAQLINTFELVHRSTLKKLIGHLKNVSEHAQENRASVENLAKVFAASLFLTDAMDEKVFSESYNHQINVLIHLTTGYDVVFQISIEEELSRQMVNDAEKKSFNAKKPSPDFIVAIHVWEKENRPFNVKMSLASEEVCREAIAKRGFDGPPDSPYAIFECLAGGNLIRRLPNAQKMSKCVLQWIDWNCKDAYLLFDHDKYQFNGTDMSCFTGKIKIAEPGSRTFKSYEVKIENGTSIVAFRNEKLWKAWPMDDSIWYVGTEPTRKSPNLFNATMICSTKTGYSSSRFPGFCFSFKEETDRNRWLTALSHFTKSIDSEPLVYI | not soluble
MVVYDCLTDEDFLQKSEHGIGKKAIYYFYGERCPSCESIKPLFDDLCKKYEKTALVYTYPCYNDDQLTGDAFAVNAVPTFVVMNNGEEVTRHVGAEAEKVQELFEKYAV | not soluble
MKYVEVIMSIKDEGEFFMKVLQKNEFLQKSNETLASILDMLEKLPVVKFDEIEADKAVLVIIDMTNGFAKEGALKSDAVKELIPRICELSEICDRRKIRKIAFADCHTDESPEFDAYPKHCMKGTAESEIVDEIKNIGGYTLIEKNSTNGFLEEAFRKWLLENPDINTFILTGDCTDICVQQFAITLKAYFNMNNKRARVIVPLNAVDTYDLGVHDRNLMNVMAAYNMIINGVEVVRDIVE | not soluble
MGSDKIHHHHHHMNYIYSFINGDFMRFFNREKEITEILSILEGNPDLVYFVYGPLNSGKTALISEIINNRIDKNKYVVFYINLRGIFISKYKDFIEVLFEEYEEDRKPVEIIKSLIKDVPSLCGIPTPKNTLEEILKKKTTKNVFKYITNVLMDIKKEGKQPIIIIDELQKIGDMKINGFLIYELFNYFVDLTKELHLCHVFCLSSDSLFIEQVYSEAMLKDRVDYILVDDFDKETALKFMDFLAEEILNKKLSDDEKELIYSYVGGKPILIIKVIKKLKIKGLKETLDEMLRDEMQKLKYFLEDIKEKDEESYNKIADALEIFKDSYEIEDIKIPKNIREFLVKKNILFLNPQKGTLKPQSYLVWNAIKRLL | not soluble
MSHHHHHHAGIFTFEEPVTHVSESIGIMEVKVLRTSGARGNVIVPYKTIEGTARGGGEDFEDTCGELEFQNDEIVKTISVKVIDDEEYEKNKTFFLEIGEPRLVEMSEKKGGFTITEEYDDKQPLTSKEEEERRIAEMGRPILGEHTKLEVIIEESYEFKSTVD | soluble
TPTTFVHLFEWNWQDVAQECEQYLGPKGYAAVQVSPPNEHITGSQWWTRYQPVSYELQSRGGNRAQFIDMVNRCSAAGVDIYVDTLINHMAAGSGTGTAGNSFGNKSFPIYSPQDFHESCTINNSDYGNDRYRVQNCELVGLADLDTASNYVQNTIAAYINDLQAIGVKGFRFDASKHVAASDIQSLMAKVNGSPVVFQEVIDQGGEAVGASEYLSTGLVTEFKYSTELGNTFRNGSLAWLSNFGEGWGFMPSSSAVVFVDNHDNQRGHGGAGNVITFEDGRLYDLANVFMLAYPYGYPRVMSSYDFHGDTDAGGPNVPVHNNGNLECFASNWKCEHRWSYIAGGVDFRNNTADNWAVTNWWDNTNNQISFGRGSSGHMAINKEDSTLTATVQTDMASGQYCNVLKGELSADAKSCSGEVITVNSDGTINLNIGAWDAMAIHKNAKLNTSSAS | soluble
SMQPPIAKPGETWILQAKRSDEFNVKDATKWNFQTENYGVWSWKNENATVSKGKLKLTTKRESHQRTFWDGCNQQQVANYPLYYTSGVAKSRATGNYGYYEARIKGASTFPGVSPAFWMYSTIDRSLTKEGDVQYSEIDVVELTQKSAVRESDHDLHNIVVKNGKPTWMRPGSFPQTNHNGYHLPFDPRNDFHTYGVNVTKDKITWYVDGEIVGEKDNLYWHRQMNLTLSQGLRAPHTQWKCNQFYPSANKSAEGFPTSMEVDYVRTWVKV | soluble
VRMVGLTIETRPDWAFERQIDRMLAFGTTRVELGVQTIFNFIHERVGRGHGVEEIIKATQLLRDAGLKINYHIMPGLPGSNFERDLYVFKTIFEDPRFRPDMLKIYPTLVTRDAPLYAWYKAGLYKPYTTEEAVELLVEAYKIFPKWVRVMRIQRDIPSHLIVAGVKHSNLGQLVFEELVRRGIRPREI | not soluble
MSTATSKFLSYVLRHAPESIGLVLDSQGWADVADLLAKANASGTPLDEAGLRAVVAESDKKRFTLSEDGRRIRAAQGHSVKVDLGQPPVEPPPQLFHGTATRFLEPILREGLRPGERQQVHLSADRTTALAVGQRHGKPVVLIVDAGQMFADGCRFYLADNGVWLTDAVPFSYLTVSADSSAENDRLEHHHHHH | soluble
MWFRNLLVYRLTQDLQLDADSLEKALGEKSARPCASQELTTYGFTAPFGKGPDAPLVHVSQDFFLISARKEERILPGSVVRDALKEKVDEIEAQQMRKVYKKERDQLKDEIVQTLLPRAFIRRSSTFAAIAPSLGLILVDSASAKKAEDLLSTLREALGSLPVRPLSVKVAPTATLTDWVKTQEAAGDFHVLDECELRDTHEDGGVVRCKRQDLTSEEIQLHLTAGKLVTQLSLAWSDKLSFVLDDKLAVKRLRFEDLLQEQAEKDGGEDALGQLDASFTLMMLTFAEFLPALFEALGGEEIPQGV | soluble
MFRRARPLRKTTRINGLERNGLKRSGRGWNAPGADVLARHCPLLPGRADAIGRGRLIVATWPKSAAKQRQNVPPARSRTRWRSMSSCHRSGPQKRGRDSGAVTAVTGAPNGQATAFVSLNDEVDAVAAAANLWVRAKSPLHGHAEHLRCEARLATFGARRQRQRVRGRARPECPRRRRSAMADMPPSAP | not soluble

Reference: the DeepSol protein solubility set
